Test results as given in US7838495B2, “Compositions and methods of use of EPB1, and ErbB3 binding protein” (University of Maryland, Baltimore, priority 2007, dated 2010).

Assays:
LNCaP cells = test: Growth response of LNCaP vector controls and EBP1 transfectants to DHT and bicalutamide; format: cell-based, human; conditions: LNCaP EBP1 transfectants (vector controls approximately 70%)
Method: Cell Growth Assays: To measure growth in complete media, cells (2×10^4) were seeded in triplicate in individual wells of 12-well tissue culture plates in RPMI-1640 with 10% FBS and cultured for the indicated number of days. Cells were trypsinized, stained with Trypan Blue (0.4%), and counted in a hemacytometer. For soft agar growth assays, increasing concentrations of cells (as indicated) were plated in 35 mm Petri dishes in complete media and 0.3% Difco Bacto Agar over an 0.5% agar layer. Colonies were counted after 10 days of incubation. For studies assessing the effect of dihydrotestosterone (DHT) on cell growth, cells (2×10^4) were plated in 12-well plates in complete media. After a 24-hour attachment period, the medium was replaced with steroid-free medium [phenol red-free RPMI 1640 and 5% charcoal-stripped FBS (Sigma)] for 48 hours. The final concentration of testosterone in the steroid-reduced media was less than 5 pM. After 48 hours of steroid depletion, cells were re-fed with fresh steroid-reduced medium with or without the indicated concentrations of DHT and/or bicalutamide (10 μM), and total cell numbers were assessed 7 days later.

MCF-7 cells = test: Western blot of ErbB2 and ErbB3 in MCF-7 EBP1 transfectants; format: cell-based, human; conditions: MCF-7-EBP1 transfectants vs vector controls
Method: FIG. 10A-C. Effect of ectopic expression of EBP1 on ErbB3 or ErbB2 protein levels. (A and B) Lysates of logarithmically growing MCF-7 vector control cells (CMV) or EBP1 transfected cells (Ebp1) or (C) AU565 cells were blotted with antibodies for ErbB3 or ErbB2 and actin as indicated. Data are representative of three experiments.
2.5. Western blot analysis. Total cell extracts were prepared by direct lysis of cells with lysis buffer [50 mM Tris-HCl (pH 7.4), 1 mM EDTA, 250 mM NaCl, 1% Triton X-100, 0.5 mM DTT, and 1× Complete™ protease inhibitor]. Protein concentrations were measured using a detergent compatible kit (Bio-Rad). Proteins (30 lg per well) were resolved by SDS-PAGE, transferred to PVDF membranes, and immunoblotted as described. […] Images were quantified using IMAGE-J software (NIH). […] Relative cell numbers were determined 4 days later using a Promega Proliferation Reagent as per manufacturer's instructions with absorbance being read at 490 nm using a Dynex plate reader. […] Data were analyzed using a two-tailed Students t-test and a p <0.05 was deemed statistically significant. […]

B1: EBP1: ErbB3 binding protein (SEQ ID NO: 2), AR corepressor, here ectopically expressed in cancer cells by stable transfection of an expression plasmid (protein, listed as Homo sapiens)
chain: MSGEDEQQEQTIAEDLVVTKYKMGGDIANRVLRSLVEASSSGVSVLSLCEKGDAMIMEETGKIFKKEKEMKKGIAFPTSISVNNCVCHFSPLKSDQDYILKEGDLVKIDLGVHVDGFIANVAHTFVVDVAQGTQVTGRKADVIKAAHLCAEAALRLVKPGNQNTQVTEAWNKVAHSFNCTPIEGMLSHQLKQHVIDGEKTIIQNPTDQQKKDHEKAEFEVHEVYAVDVLVSSGEGKAKDAGQRTTIYKRDPSKQYGLKMKTSRAFFSEVERRFDAMPFTLRAFEDEKKARMGVVECAKHELLQPFNVLYEKEGEFVAQFKFTVLLMPNGPMRITSGPFEPDLYKSEMEVQDAELKALLQSSASRKTQKKKKKKASKTAENATSGETLEENEAGD
modifications: FLAG tag
Q: Which “growth inhibition by the withdrawal of androgens” value (LNCaP cells) does the source give for B1 here?
A: The value was 60%.

Q: What about the ErbB2 protein level (MCF-7 cells) of the same molecule?
A: Its ErbB2 protein level is “significantly decreased”.

Q: What about the ErbB3 protein level (MCF-7 cells) of the same molecule?
A: Its ErbB3 protein level is “no change”.
